In patent US20090060908A1:

Molecular target: CD16 (FcγRIII) on human peripheral blood effector cells (human) (UniProt P08637)
Assay: cell-based or functional assay

Sequence of CD16 (FcγRIII) on human peripheral blood effector cells (human) (P08637 17-254): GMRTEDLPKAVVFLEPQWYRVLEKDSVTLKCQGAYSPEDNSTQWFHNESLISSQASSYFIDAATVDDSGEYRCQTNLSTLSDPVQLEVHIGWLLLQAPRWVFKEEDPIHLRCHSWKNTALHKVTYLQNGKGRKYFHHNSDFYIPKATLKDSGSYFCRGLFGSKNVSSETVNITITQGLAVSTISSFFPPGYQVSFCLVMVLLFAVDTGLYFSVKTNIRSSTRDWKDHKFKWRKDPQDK

Question: For anti-CD16 antibody 3G8, which % lysis in ADCC by 1 µg/ml 2A10 (fucosylated or defucosylated) with 5 µg/ml anti-CD16 antibody 3G8 is on record?
Answer: The % lysis in ADCC by 1 µg/ml 2A10 (fucosylated or defucosylated) with 5 µg/ml anti-CD16 antibody 3G8 was less than 5%.

Question: And the % lysis in ADCC by 1 µg/ml 7F12 (CHO-derived or chicken-derived) with 5 µg/ml anti-CD16 antibody 3G8?
Answer: The % lysis in ADCC by 1 µg/ml 7F12 (CHO-derived or chicken-derived) with 5 µg/ml anti-CD16 antibody 3G8 was 4%.
